Laboratory results published in the Human Domainome abundance scans (Beltran et al. 2025).

B1: DnaJ homolog subfamily C member 5, residues 16 to 77; numbered along this chain, Q9H3Z4 (parent)
chain: LYHVLGLDKNATSDDIKKSYRKLALKYHPDKNPDNPEAADKFKEINNAHAILTDATKRNIYD

Variants of: B1
Experiment: abundance fitness (aPCA) (normalised: wild type 0, dead -1); higher = more abundant; growth selection in yeast, the domain comes from the species named
Conditions: Homo sapiens

Abundance fitness, by site and new letter:
D14: E -0.048 | F -0.848 | G -0.401 | H -0.394 | I -0.105 | K -0.209 | L -0.238 | N -0.151 | P -0.348 | Q -0.394 | R -0.359 | S -0.242 | T -0.346 | V -0.341 | W -0.357 | Y -0.431
D15: A -0.042 | C -0.24 | E -0.067 | F -0.689 | G -0.433 | H -0.679 | I -0.328 | K -0.17 | L -0.412 | M -0.359 | P -0.643 | R -0.693 | S -0.382 | T -0.367 | W -0.271 | Y -0.888
I16: A -0.32 | C -0.44 | D -0.567 | E -0.305 | F -0.064 | G -0.442 | H -0.723 | K -0.45 | L -0.285 | M -0.65 | N -0.615 | P -0.587 | Q -0.437 | R -0.586 | S -0.435 | V -0.238 | W -0.998 | Y -0.649
K17: A 0.048 | C -0.361 | D -0.477 | E 0.084 | F -0.52 | G -0.251 | H 0.057 | I -0.107 | L -0.18 | M -0.09 | N -0.248 | P -1.31 | Q -0.063 | R -0.032 | S -0.153 | T -0.07 | V 0.039 | W -0.204
K18: A 0.079 | C -0.101 | D -0.062 | E 0.11 | F 0.117 | I -0.005 | L -0.157 | M 0.06 | N -0.34 | P -0.623 | Q -0.104 | R -0.13 | S 0.04 | T -0.025 | V -0.098 | W -0.226 | Y -0.333
S19: A 0.02 | C -0.088 | D -0.485 | E -0.091 | F -0.88 | G -0.3 | H -0.333 | I -0.762 | K -0.391 | P -0.516 | Q 0.042 | R -0.317 | T -0.106 | V -0.187 | W -0.813 | Y -0.299
Y20: C -0.182 | D -0.053 | E 0.2 | F 0.191 | G -0.189 | H 0.109 | I -0.603 | K -0.27 | L -0.505 | M -0.414 | P -0.093 | Q 0.015 | R -0.148 | S -0.086 | T -0.236 | V -0.28 | W 0.329
R21: A 0.379
K22: A 0.117 | C -0.19 | E 0.249 | F -0.16 | G 0.045 | H 0.169 | I -0.179 | L 0.039 | M 0.32 | N -0.188 | P -0.266 | Q 0.217 | R 0.041 | S 0.166 | V 0.168 | W -0.339 | Y -0.246
L23: A -0.454 | D -0.129 | E -0.067 | F -0.536 | G -0.308 | H -1.2 | I -0.736 | K -0.247 | M -0.209 | N -0.052 | P -0.438 | Q -0.334 | S -0.423 | V -0.525 | W -0.423 | Y -0.403
A24: C 0.159 | D -0.552 | E 0.028 | F 0.213 | G -0.377 | I 0.086 | K -0.034 | L -0.095 | M -0.028 | P -0.449 | Q -0.093 | R -0.041 | S 0.044 | T 0.002 | V 0.126
